# Patent US20230002480A1
# Columns and labels:
# Experiment in all cases: cell-based or functional assay
# [1] = molecular target: HIV-1 Env of pseudovirus 3016.v5.c45 (HIV-1)
# [2] = molecular target: HIV-1 Env of pseudovirus X1632_S2_B10 (HIV-1)
# [3] = molecular target: HIV-1 Env of pseudovirus Ce2010_F5 (HIV-1)
# [4] = molecular target: HIV-1 Env of pseudovirus Du156.12 (HIV-1)
# [5] = molecular target: HIV-1 Env of pseudovirus BJOX015000.11.5 (HIV-1)
# [6] = molecular target: HIV-1 Env of pseudovirus ZM249M.PL1 (HIV-1)
# [7] = molecular target: HIV-1 Env of pseudovirus T257-31 (HIV-1)
# [8] = molecular target: HIV-1 Env of pseudovirus BJOX010000.06.2 (HIV-1)
# [9] = molecular target: HIV-1 Env of pseudovirus HIV-0013095-2.11 (HIV-1)
# [10] = molecular target: HIV-1 Env of pseudovirus Ce0682_E4 (HIV-1)
# [11] = molecular target: HIV-1 Env of pseudovirus Q461.e2 (HIV-1)
# [12] = molecular target: HIV-1 Env of pseudovirus WEAU_d15_410_787 (HIV-1)
# [13] = molecular target: HIV-1 Env of pseudovirus 6540.v4.c1 (HIV-1)
# [14] = molecular target: HIV-1 Env of pseudovirus 235-47 (HIV-1)
# [15] = molecular target: HIV-1 Env of pseudovirus HIV-16845-2.22 (HIV-1)
# [16] = molecular target: HIV-1 Env of pseudovirus CNE53 (HIV-1)
# [17] = molecular target: HIV-1 Env of pseudovirus Q259.d2.17 (HIV-1)
# [18] = molecular target: HIV-1 Env of pseudovirus MS208.A1 (HIV-1)
# [19] = molecular target: HIV-1 Env of pseudovirus R1166.c01 (HIV-1)
# [20] = molecular target: HIV-1 Env of pseudovirus QH0692.42 (HIV-1)
# [21] = molecular target: HIV-1 Env of pseudovirus Ce2060_G9 (HIV-1)
# [22] = molecular target: HIV-1 Env of pseudovirus 62357_14_D3_4589 (HIV-1)
# [23] = molecular target: HIV-1 Env of pseudovirus BJOX009000.02.4 (HIV-1)
# [24] = molecular target: HIV-1 Env of pseudovirus R3265.c06 (HIV-1)
# [25] = molecular target: HIV-1 Env of pseudovirus PVO.4 (HIV-1)
# [26] = molecular target: HIV-1 Env of pseudovirus A07412M1.vrc12 (HIV-1)
# [27] = molecular target: HIV-1 Env of pseudovirus P1981_C5_3 (HIV-1)
# [28] = molecular target: HIV-1 Env of pseudovirus REJO4541.67 (HIV-1)
# [29] = molecular target: HIV-1 Env of pseudovirus Du422.1 (HIV-1)
# [30] = molecular target: HIV-1 Env of pseudovirus C1080.c03 (HIV-1)
# [31] = molecular target: HIV-1 Env of pseudovirus TRO.11 (HIV-1)
# [32] = molecular target: HIV-1 Env of pseudovirus X2088_c9 (HIV-1)
# [33] = molecular target: HIV-1 Env of pseudovirus ZM214M.PL15 (HIV-1)
# [34] = molecular target: HIV-1 Env of pseudovirus C4118.c09 (HIV-1)
# [35] = molecular target: HIV-1 Env of pseudovirus 6952.v1.c20 (HIV-1)
substance,measurement,setting,value
PGT121 (antibody),IC50,[1],> 50 µg/mL
same,IC80,[1],> 50 µg/mL
same,IC50,[2],> 50 µg/mL
same,IC80,[2],> 50 µg/mL
same,IC50,[3],> 50 µg/mL
same,IC80,[3],> 50 µg/mL
same,IC50,[4],0.004 µg/mL
same,IC80,[4],0.017 µg/mL
same,IC50,[5],> 50 µg/mL
same,IC80,[5],> 50 µg/mL
same,IC50,[6],> 50 µg/mL
same,IC80,[6],> 50 µg/mL
same,IC50,[7],> 50 µg/mL
same,IC80,[7],> 50 µg/mL
same,IC50,[8],> 50 µg/mL
same,IC80,[8],> 50 µg/mL
same,IC50,[9],> 50 µg/mL
same,IC80,[9],> 50 µg/mL
same,IC50,[10],> 50 µg/mL
same,IC80,[10],> 50 µg/mL
same,IC50,[11],> 50 µg/mL
same,IC80,[11],> 50 µg/mL
same,IC50,[12],0.026 µg/mL
same,IC80,[12],0.077 µg/mL
same,IC50,[13],> 50 µg/mL
same,IC80,[13],> 50 µg/mL
same,IC50,[14],0.137 µg/mL
same,IC80,[14],0.727 µg/mL
same,IC50,[15],3.97 µg/mL
same,IC80,[15],44.6 µg/mL
same,IC50,[16],0.007 µg/mL
same,IC80,[16],0.024 µg/mL
same,IC50,[17],15.4 µg/mL
same,IC80,[17],> 50 µg/mL
same,IC50,[18],> 50 µg/mL
same,IC80,[18],> 50 µg/mL
same,IC50,[19],> 50 µg/mL
same,IC80,[19],> 50 µg/mL
same,IC50,[20],0.302 µg/mL
same,IC80,[20],2.31 µg/mL
same,IC50,[21],> 50 µg/mL
same,IC80,[21],> 50 µg/mL
same,IC50,[22],2.6 µg/mL
same,IC80,[22],> 50 µg/mL
same,IC50,[23],2.86 µg/mL
same,IC80,[23],31.7 µg/mL
same,IC50,[24],> 50 µg/mL
same,IC80,[24],> 50 µg/mL
same,IC50,[25],0.098 µg/mL
same,IC80,[25],0.343 µg/mL
same,IC50,[26],0.009 µg/mL
same,IC80,[26],0.075 µg/mL
same,IC50,[27],< 0.001 µg/mL
same,IC80,[27],< 0.001 µg/mL
same,IC50,[28],4.77 µg/mL
same,IC80,[28],> 50 µg/mL
same,IC50,[29],0.039 µg/mL
same,IC80,[29],0.143 µg/mL
same,IC50,[30],> 50 µg/mL
same,IC80,[30],> 50 µg/mL
same,IC50,[31],0.005 µg/mL
same,IC80,[31],0.025 µg/mL
same,IC50,[32],0.003 µg/mL
same,IC80,[32],0.013 µg/mL
same,IC50,[33],0.46 µg/mL
same,IC80,[33],2.04 µg/mL
same,IC50,[34],> 50 µg/mL
same,IC80,[34],> 50 µg/mL
same,IC50,[35],0.056 µg/mL
same,IC80,[35],0.42 µg/mL
